Data as given in article PMC3902949.

Target: Saccharomyces cerevisiae Rad51 protein (S. cerevisiae) (UniProt P25454)
Assay: SEC; 10 µM Rad51 and 20 µM Rad52 fragment incubated at room temperature for 1 h, or each protein alone; Superdex 200 10/300 GL in 20 mM Hepes-KOH pH 7.5, 0.1 M KCl, 0.5 mM EDTA, 10% glycerol, 2 mM 2-mercaptoethanol; peak fractions analysed by SDS-PAGE

UniProt P25454, sequence (P25454 whole entry, the tested form may be a part): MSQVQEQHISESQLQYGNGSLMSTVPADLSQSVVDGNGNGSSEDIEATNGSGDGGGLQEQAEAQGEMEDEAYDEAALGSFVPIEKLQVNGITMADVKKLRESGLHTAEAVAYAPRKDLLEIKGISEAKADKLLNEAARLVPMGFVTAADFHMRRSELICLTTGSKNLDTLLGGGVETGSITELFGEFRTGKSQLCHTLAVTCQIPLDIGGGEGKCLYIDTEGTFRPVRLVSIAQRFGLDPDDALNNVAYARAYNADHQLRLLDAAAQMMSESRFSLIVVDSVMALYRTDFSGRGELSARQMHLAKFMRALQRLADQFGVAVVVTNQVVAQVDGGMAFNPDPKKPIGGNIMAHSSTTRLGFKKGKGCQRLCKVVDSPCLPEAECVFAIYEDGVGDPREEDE

**Q.** “Rad52^233–504 (C-terminal half of the Saccharomyces cerevisiae Rad52 protein) (domain or fragment)” was tested. Which stoichiometry N did it give?
**A.** 1
